The values that follow come from a protein production outcome set (Wang et al. 2014).

The nature of this data set: label from the status in PepcDB records.
With “MKKGTVLNSEISSVISRLGHTDTLVVCDAGLPIPNSTARIDMALTQGVPSFMQVVDVVTREMQVEAAILATEIKQQNPQLHETLLTHLEQLQQHQGNTIKISYTTHEQFKKLTADSQAVIRSGECSPYANVILCAGVTF”, the protein production result is reported as “not failed”. As for “MSLVLMAQATKPEQLQQLQTTYPDWTFKDAAAVTAADYDQIEVMYGNHPLLKTILARPTNQLKFVQVISAGVDYLPLKALQAAGVVVANTSGIHADAISESVLAAMLSVVRGYHAAWLNQRGARQWALPMTTSTLTGQQLLIYGTGQIGQSLAAKASALGMHVIGVNTTGHPADHFHETVAFTATADALATANFIVNALPLTPTTHHLFSTELFQQTKQQPMLINIGRGPAVDTTALMTALDHHQLSMAALDVTEPEPLPTDHPLWQRDDVLITPHISGQIAHFRATVFPIFAANFAQFVKDGTLVRNQVDLNRGYEGHHHHHH”, the protein production result was “not failed”.

Take “MTAYDLKLKCVCDYIQQHLDETLSLQQLSEVAGLSRFHFHRIFYAHLGMNIMKYTQMLRLKRASFQLVFKPEVKVIEIALDAGFDSPEAFARAFKRSFDQTPSAFRVEPNWQNWHRKFVYFTPESELKMNVTIIERPVEKIAYISHQGSPEKVFETAAKFIEWRKRTGLSPVKTSATYGIPFSDPEQTPEKEFRFDIAGSITKSIDQNNEGIEMSEIPAGRYAMVRHWGSHDYIRDSVYFLFRNWLPAQQEEAGDYPVFFHYHNFVHEVKEADLVTDIYLLLK”: the protein production result was “failed”. Then “MSRVAGLSSKKSRWLLQSLLDQQRHSLGTGFESANILLSPKYHLKDKDLRKIHKAARDGDAARVQQLLLGKHCVNDKDKKKRTALHIACAYGHPKVVMALVEGKCEVNATDSEECTSLVKAVQCQEEECATILLENNADPNIVDAQGNSALHYAVYYKNTSLAAKLLDHEVNIEATNKDGFTPFLLAVSENKLKIAKFLLMKNASIHAADNQKRTALMHAVSHDSTNLVRFVLEQGVDLFVKDAFGLTAIDYAADFKYNSKDQQSQELENMEKKYTAAQDSLEYTAAQDSLEHTAAQDSLEHTAAQDGLEYTAAQDSLEHTAAQDSLEHTAAQDSLEHTAAQDSLEYTAAQDSLEYTAAQDSLEYTAAQDSLEHTAAQDSLEYTAAQDSLEHTAAQDSLECTAASNSSRSHALITHVHLSAEPDGGVTSVEEPRRLDDRGDDQPQEAVTAPRTREKEQDMCTVVTGKEDEDESSWDSETNPPSPWGAPEALCAAALDHGDIGSPLTRENGHPRARQSPSVDSEEQDGGSGLNIKEEKTRDHEEWSGDFLMDRTSKESEPAAGDLLQVKDSWSLNDTDPNKGRSGGDPIEESRNATDLNHCKAVYIPPSESANSEIWKGMSSAKARLDNASKGPTVTRF”, with “failed”. On to “MKIAYLGPSGSFTHNVALHAFPAADLLPFENITEVIKAYESKQVCFAIVPVENSIEGSVHETFDYLFHQAKIEAVAEIILPIKQQLMSTSADKTIETIFSHPQAIAQGKQYIRSHYPDVKIEMTASTAYAARFVAEHPEENYAAIAPYAAADEYHLSIIAKDIQEIDENYTRFWVLGDETP”, for which the protein production result is recorded as “failed”. Then “NFSNRVQDVIRLSREEALRLGHDYIGTEHLLLGLIREGEGIGAKILKNLKVDLFQLKQKIEENTHPKVPATQMGNVPLTKQAEKVLKITYLEAKICKSTIIGTEHLLLSILKGDDNIAAQILEQFGVTYDQVRDELMTITT”, with “not failed”.

For “MMMYKEPFGVKVDFETGIIEGAKKSVRRLSDMEGYFVDERAWKELVEKEDPVVYEVYAVEQEEKEGDLNFSTHVIYPGKVGKEFFFAKGHFHAKLDRAQVAVALKGKGGVLMQTPEGDAKWISSEPGTVIYSPPYWAARAVNIGDEPFIMLVIYPADAGHDYGTIAEKGFSKIVIEENGEVKVVDNPRWKKGSLEHHHHHH”, the protein production result is “not failed”. In the case of “MCEYTYSNGKKCRRKPLKGSKYCSLHIPFEEGELLYGDRIKYIKKRAFERALERGIRNFEGVKLYDVIIVGKEINEALIFRNSIIKRLVIVTSKIKSLSLIDTTIDTLVIVNSEVDFFYVNGGSIYGVSICSVKFSSSILFRDSSIRYVMINSTEFSPKEVTTEEEFGEKVRIAGRIELANLKDVRRIALNSKYPLMAKIMEEFGIKLSLDRKKPVRVHTLTITGVEFDESPRFRKQVRIFINRFSGQLIFENLSVPGHVEIVNSRVRYPEFVHVIIHNNLVLRNTRLYSDENWNLAYLPNLLAELNVYGFIVIDNCQFNNPYLAEVFYRIARTTWEGSGDKENADEYYYLEMLARRKKVIQHYRKGPRTLKKMVKLLEVLFEFLFADLTCKYGTDWKRPVFLWMGLVIFVFPVFYALTKSVVPTSSLFDYVYFSIVTATTLGYGDLHPIGVGKVIASIEAIFGMFMWAVFLTVFARKYMR”, the protein production result was “failed”.

Consider “MSEYLHIIIWFFLIEALSFISVPFIRSAGNRLADGGYSVSRALGIMLVTYLSWIFSYILGFSFTAVLIAFFLLCSVSIFLYRKQKFFPGRKVLVVNELVFASGFFFFLLVRTYLPEIYRHEKFMDFAFLNAVIRASSFPPQDPWFAGGLMDFYYYFGYLSVAVFGKLSAVKPSILFNLAVALTFALSLNAFFGMGYNLTRGKIRYGILTAVFGMLLGNLQGLIEFVSVYIRHEQALGGYYWSSSRVIPFTINEFPYFSFIHGDLHSHMLAIPFQLLVLAFLLNMHFRKNEDSIFENSLALLMFSMSLGFLFPFNSWDFPVYFGLAFLVIFAFYCGDYVHNRNLFAAVAKFSNSMIFISIFSFLPYLLFYLDFNPQAAGGFDFVLPELRTETDRFLILFGLFLFLVFSFLITRLDSRRKIVFFVLLAGVSALLSKAWSIPLLAVLLPVFVFSLLLFLKDIPERSASGFVYLLISAASFIALLCEVIFLDDPISGEFARMNTVFKFYMHLWIFLAISAAYSYYDLNSHYAARSGNRKTLKQFVKKGWSVILVILIICCAIFPAVSTVTRIKEMNAEPSLDGMEYMRELDRGDYNAIRWMQANIKGSPVILETSEDDSSYSYACRVSSNTGIPAVIGWARHERFWGRDHEEVKKRIGDVSLIYSTGSEEEAIELIEKYNVTYVYIGTLERQVYDVNTKKFENKAYFEPVYEGSATIYKLKKKP”, for which the protein production result was “failed”. For “MSLYEWLNALPKAELHLHLEGTLEPELLFALAERNRIALPWNDVETLRKAYAFNNLQEFLDLYYAGADVLRTEQDFYDLTWAYLQKCKAQNVVHVEPFFDPQTHTDRGIPFEVVLAGIRAALRDGEKLLGIRHGLILSFLRHLSEEQAQKTLDQALPFRDAFIAVGLDSSEVGHPPSKFQRVFDRARSEGFLTVAHAGEEGPPEYIWEALDLLKVERIDHGVRAFEDERLMRRLIDEQIPLTVCPLSNTKLCVFDDMSQHTILDMLERGVKVTVNSDDPAYFGGYVTENFHALQQSLGMTEEQARRLAQNSLDARLVKEGHHHHHH”, the protein production entry is “not failed”. The result for “MARHLITSALPYINGIKHLGNMVGSMLPADVYSRYLRQRGHDVLYICATDEHGTPAELAAKERGLPVDEFCAQAHDAQKAVYDGFELAFDYFGRSSSEQNREITQHFARRLNENGFIEERAIRQVYSPADGRFLPDRYVEGTCPHCGYDKARGDQCENCTRVLDPTDLINPRSAISGSTDLEVRETKHLFLLQSKLQHEVEEWVARHEEEWPQLASSIARKWLNEGLHDRAITRDLDWGVPVPADTWPELAAEGKVFYVWFDAPIEYIGATKEWSDLDPENRDWKSWWYDADSGENPVRYTEFMAKDNVPFHTVMFPATELGVREPWKKVDYVKAFNWLTYYGGKFSTSQKRGVFTDHALEILPADYWRYFLIANAPESDDSSFTWEHFTATVNKDLADTLGNFVNRVLSFSKKRFGEEVPAGAPAGESETKLGEEIAALLAEYESHMETLQFRKAAAALRALWSAGNSYLEEKAPWLEIKTNPEGAALTLRTAMNLIHLYSVVSEPFIPASSKAMRSAFALSEDTATWVTQDEAKSLDSVPAGTPFTVPPVLFAKITDEDLESYKERFGGAPE” reads “failed”; that for “MGRYILGITVLVTVVVAPLEAGLSSVALLALLAAFGIGVQVIAPWFIPLVRSVDTPDDQTTETLNRLRERAGLTVRDVRVLDTEQEGTANVIVRGAPGYRRLFVTSTFLDVFDDEMATALLAVQAGRQEARVRARLIGGLLIALVPVFAALADIGPLWPLVGASLGLLVVTLWVTRRGVRAADDYAAEGVGPDTVADALERYADVHDMEPPRRRLANPFSKSPPLGNRIDRLREQAGE”, “failed”. Turning to “MKMIQFWFDFASTYSYPAAMQIRQLKDEYRFSLHPFLLGGIFQKQGLNDSPFNAYPVKGQYMWRDLERICQKLDLKFHRPVLFPQNGLLAARIACQYASAPWIFDFICSVYQANFVQNLDIGQPETISQILQNMQLDCNDIIMTSTTDTAKQTLKQNGMIAESLHIFGAPSFVVENELFWGQDRLQDAIDWSQR”, the protein production result is listed as “failed”. The result for “MVSYDRHINHVRLFVDGILDSSFLTEGITKTNDSPIYIGGAPYSVDSCDFPFLLDELKIYNLSIGTDQIQSEASASLSGIEPSFIYFGCFHCDMNTAILSCPNNYHLCNKMELYIGVYNVLRKFSLDVNNIILPYSSESNLGIGICCTDI” reads “failed”; that for “MIYLFSHAGLRDLRDFIDRSTLFAFDLDGTLAPIVSDPAGIMIPPDVHERLVRLNGTASVAVVTGRARVDAARHLGFAPRFLVGNHGAEGLPGADAAEREFIGLCRGWMTQLGELLPEGEGTGIVMEDKSATLSLHYRNAPDRENAHQRILAAVSRLLPAPRRVSGKLVENLVPAAAPHKGDALRCIMRHLGCARALFVGDDVTDEDVFRLGDEAIFGIRVGNSGGSAARYFIRGQDEMAPLLDEILAVL”, “failed”; that for “MATRFDVKTIVKDKRFWIASFIIVWAAGLQGHMMWLQKQESFKQKFGTIDEDDHK”, “failed”. Consider “ALKLMQYIGDAIGTIRDPQELFRTVTDKLRLLFAFDSAVIITIDRERREASVFFEMLRFELPEQLRHQTRSIAGTWLEGHLDDRTVTVASIARDIPSFGADGAPLLWTLHELGMRQIVLSPLRSGGRVIGFLSFVSAEEKLWSDGDKSLLSGVSSSIAIAVSNALAYEELRQRE”, for which the protein production entry is recorded as “not failed”. For “MKILVTGGTGLIGRHFISAFNHKYQFTVLTRNTQKAQLYLPKNIEFIEQLPEQNYFDVIINLAGEPIIDKRWSRAQKENICQSRWNITEKIVEMIARATDKPSCLISGSAIGYYGETGAVSTHEDAKVTHSDFAHTLCQKWEELALKAKEHCRVVLLRTGIVLASDGGALEKMRLPFSLGLGGKLGNGQQYMSWIHIDDMIHAIHFSVQIKCIEGAINCTSPKAITNEVFTKALGKEVNRPTWFSVPAFVLNILMGQGAELLLTSQNIYPQKLLSHGFHFNHSDIEHALADLMTES”, the protein production entry is listed as “failed”. Take “MDNITNESDNLIQIFSHNPLALISCIILGIGLLFTFASRQFILVRVLLGNVSFIKQRILGVIFGIVGALLLLFATGNLNL”: the protein production entry is “failed”.

Regarding “MFGLSKRAITILFGLLALAFALGAILLFTPQAGQQTRGKPVLWVNGKALYELDLLRLQGNDPLYAASPEGLLKTLVDTYFLEQVILTEALKQDAARVRVSSAEVRQEVNRIREQFGLKDKAAYEQFLNQVGYTDAQLRAEVKTQLQIQKRLEQIRSGAKPTEEEVRFYYEVFKENYRTEPRVKARQIVVDDKALAEELAAKAKAGEDFAALARQHSKVGAEQGGALGAGPGEAEPKPVTQVVFPTEVGEAVFALKGPGVVGPIAAGGRYYIVKVEEYLPSTLPAFEEVKDRVAQDAERAKGNGVLEAYLEELRKKAQVRFAEDNPYAYQNPPVAKVNEKEILLSEVLQPVFSNQQTVALVQQGLGELAVQFFLPQTLENLIDRELLVEAARKSGKPFIGSKAEIAEAYLRYETRDVTASEEEARAFYSENPALFTVPASAKVIGVNFKEEAQAKAFRAAALRGGDLEALAKAQEGTVTDYGTVNPNQLPAVLDRLVFKITETFPQGPLGEVSEVIKMEDGSYTVLLISDRKAEELKGFAQVAEEARQGAVNRKRSEKAQALIQALREEAKIENRLAEVLQALTPKTPSQDQPNSQEQPQPEEAPANNP”, the protein production result is reported as “failed”. On to “MQDERWNHPLYTTTAINDEELEGHAYIPGGLKVQTSSPMNDHPGTNPEQLLGLSLSTCLEATLEAVEKEHGLPHTGAVRVKVAFIGARAEYQFLVHAQVMVKGVDFDTAKAFTNEIENRCPVSKLLKNSGNYTIETVTDFKD”, for which the protein production entry is listed as “not failed”.
